In PMC9201380, “Structural Characterization of a Neutralizing Nanobody With Broad Activity Against SARS-CoV-2 Variants” (Frontiers in Microbiology, 2022):

Biological target: SARS-CoV-2 S receptor-binding domain (residues 330-531), Avi-tagged and biotinylated (SARS-CoV-2, UniProt P0DTC2)
Assay: BLI; Octet RED96; biotinylated RBD (2 μg mL^-1) immobilized on SA sensor; DL28 as analyte at 2, 5, 10 and 20 nM; 30°C; 1x PBS, 0.05% Tween 20; association 360 s, dissociation 600 s; 1:1 fit
Conditions: both partners purified

B1: DL28 (monovalent nanobody) (VHH)
VHH: QVQLQESGGGLVQAGGSLRLSCAASGSDFSSSTMGWYRQAPGKQREFVAISSEGSTSYAGSVKGRFTISRDNAKNTVYLQMNSLEPEDTAVYYCNVVDRWYDYWGQGTQVTVSA
notes: also called monovalent DL28
- Kd: 1.56 nM
